“Also recorded” adds a separate entry of the source.
What was measured:
HK-2 cells = assay: In vitro model of cisplatin toxicity: HK-2 cell survival by the WST-1 method; type: cell-based, human; conditions: 20 μM cisplatin, 24 hrs; test substance 80 μg/ml
Procedure: FIG. 1B is a graph depicting the effect of renalase peptides on survival of HK-2 cells exposed to 20 μM cisplatin for 24 hrs; cell survival is depicted as % change in survival compared to that in cisplatin-treated HK-2 cells without renalase peptides; cell survival was measured by the WST-1 method; RP-A220: mutated RP-220, and RP-19 and RP-128: control peptides; peptide concentration (μg/ml) indicated in top line; n=4, *=p<0.05. […]
HK-2 cells (human proximal tubular line) obtained from ATTC (Manassas, Va., USA) were cultured in DMEM/F12 supplemented with glutamine, 10% FBS and antibiotics, and were maintained at 37° C. in 5% CO2. Cells were exposed to cisplatin (20 μM) in the presence or absence of recombinant renalase or renalase peptides for 24 hrs, and cell viability was assessed by the WST1 method (Roche Applied Science, Germany).

isolated mouse acini [1] = assay: Trypsin activity (zymogen activation) in isolated mouse pancreatic acini; type: cell-based
Procedure: (§1) FIGS. 9A-9E, depict the results of experiments that show recombinant exogenous renalase reduce zymogen activation and injury in vitro in mice. (FIG. 9A) Isolated WT mouse acini were pretreated for 30 minutes with recombinant renalase (25 μg/mL; 0.1 μM) and then treated with either (FIG. 9A, 9D, 9E) physiologic (0.1 nM) and supraphysiologic (100 nM) cerulein or (FIG. 9B) physiologic (1 μM) or supraphysiologic (1000 μM) carbachol for 30 minutes. Trypsin activity (FIGS. 9A-9C), MTT accumulation (FIG. 9D), and LDH release (FIG. 9E) were assayed using a fluorogenic substrate. For FIG. 9C, isolated acini from renalase ^−/^− mice were treated pretreated with recombinant renalase (25 μg/mL) and then treated with cerulein (0.1 nM or 100 nM) for 30 minutes. *p<0.05 vs. supraphysiologic cerulein or carbachol, # p<0.05 vs. WT, n=3, +/−SEM.
FIGS. 13A-13C, depict the results of experiments showing caloxin blocks the protective effects of renalase. Isolated WT mouse acini were pretreated for 30 minutes with caloxin 1b (100 μM) and/or recombinant renalase (25 μg/mL) and then treated with supraphysiologic (100 nM) cerulein (CER) and assayed for trypsin activity (FIG. 13A) or MTT conversion (FIG. 13B). *p<0.05 vs. CER, # p<0.05 vs. CER+renalase. WT, n=3, +/−SEM.
Next, it was assessed whether pretreatment with recombinant human renalase reduces injury in pancreatitis. This was first assessed in isolated groups of murine acinar cells (acini) that were exposed to supraphysiologic concentrations of cerulein and carbachol (which induces early acinar cell pancreatitis responses) in isolated WT mouse acini and acini isolated from renalase deficient mice in vitro (FIG. 9). The recombinant renalase reduced trypsinogen activation induced by either cerulein (FIG. 9A) or carbachol (FIG. 9B). […] Renalase had no effect on untreated acini or acini treated with physiologic stimulation.

isolated mouse acini [2] = assay: Injury of isolated mouse pancreatic acini (MTT, LDH release, H&E histology); type: cell-based; conditions: WT mouse acini, renalase 25 μg/mL, cerulein
Procedure: as §1
FIGS. 13A-13C, depict the results of experiments showing caloxin blocks the protective effects of renalase. […]
Next, it was assessed whether pretreatment with recombinant human renalase reduces injury in pancreatitis. This was first assessed in isolated groups of murine acinar cells (acini) that were exposed to supraphysiologic concentrations of cerulein and carbachol (which induces early acinar cell pancreatitis responses) in isolated WT mouse acini and acini isolated from renalase deficient mice in vitro (FIG. 9). […]

WT mice = assay: Cerulein-induced pancreatitis in vivo; set-up: species or system mouse; conditions: single IP dose 2 hours after initiating cerulein pancreatitis; sacrificed at hour 7
Procedure: FIGS. 10A-10G, depict the results of experiments showing that pretreatment with renalase peptide (RP-220) ameliorates cerulein-induced pancreatitis in vivo. WT mice were treated with 6 hourly IP injections of cerulein (CER, 40 mcg/kg). IP renalase peptide, RP-220 (renalase, 1.3 mg/kg) was given 1 hour before first cerulein injection. (FIG. 10A) Pancreatic trypsin activation measured with fluorogenic substrate, normalized to total protein. (FIG. 10B) Edema measured as % wet weight. (FIG. 10C) Apoptosis evaluated by TUNEL positive cells. (FIG. 10D) Neutrophils (Ly-6B) and (FIG. 10E) macrophages (F4/80) were quantified. Pancreas H&E sections (FIG. 10G) were evaluated for edema, pyknotic nucei, and vacuoles to derive morphological score (FIG. 10F). *p<0.05 vs. WT-CER, +/−SEM, n=5.
A single dose of renalase was given intraperitoneally (100 μg peptide/25 g body weight) 2 hours after inducing cerulein-pancreatitis. Six hourly injections IP of 50 μg/kg and animals were sacrificed at hour 7. Histologic pancreatitis severity was evaluated by two blinded reviewers. […] N=4 mice in each group.
To determine whether the protective of renalase observed in isolated acini was relevant in vivo, WT mice were pretreated (1 hour) with a single dose of the renalase peptide (RP-220) intraperitoneally (100 μg peptide/25 g body weight) prior to inducing cerulein-pancreatitis (6 hourly injections IP of 50 μg/kg). […]

PMCA [3] = molecular target: PMCA (Homo sapiens, UniProt P23634); assay: Ca2+ efflux through PMCA, time lapse confocal microscopy, HK2 cells; type: cell-based
Procedure: (§2) FIGS. 12A-12F, depict the results of experiments showing renalase increases Ca^2+ efflux through PCMA. Changes in whole cell cytosolic Ca^2+ were recorded with the Ca^2+ dye Fluo-4 (HK2 cells) or Fluo-5 (acinar cell) by time lapse confocal microscopy. FIGS. 12A, 12B, 12D, and 12E are representative plots of fluorescence over time in HK2 cells (FIGS. 12A and 12B) or mouse acinar cells (FIGS. 12D and 12E). Cells were pretreated with 30 μM cyclopiazonic acid and perfused with Ca^2+-free medium. Cells were briefly stimulated with 10 nM angiotensin IV (Ang in HK2 cells) or 100 nM cerulein (Cer in acinar cells) in the presence of 1.3 mM Ca^2+. […] For FIGS. 12C and 12F, the rate of Ca^2+ efflux was quantified from 30 cells/treatment group. *p<0.05 vs. no renalase. […]
(§3) PMCA selectively binds renalase (FIG. 6). […] Since the protective effects of renalase were first characterized in HK-2 cells (human kidney cell line) (Lee et al., 2013, J Am Soc Nephrol 24, 445-455; Wang et al., 2014, Journal of the American Society of Nephrology: JASN), its effects on Ca^2+ signals were evaluated in these cells and subsequently in mouse acinar cells (FIG. 12). […] Perfusion buffer was then switched back to Ca^2+-free medium in the presence or absence of renalase, and cytosolic Ca^2+ levels were monitored over time and the rates of Ca^2+ efflux were calculated (FIG. 12). […]

PMCA [4] = molecular target: T1, PMCA (Mus musculus, UniProt Q6Q477); assay: Ca2+ efflux through PMCA, time lapse confocal microscopy, mouse acinar cells; type: cell-based
T1 sequence (Q6Q477 1-1205): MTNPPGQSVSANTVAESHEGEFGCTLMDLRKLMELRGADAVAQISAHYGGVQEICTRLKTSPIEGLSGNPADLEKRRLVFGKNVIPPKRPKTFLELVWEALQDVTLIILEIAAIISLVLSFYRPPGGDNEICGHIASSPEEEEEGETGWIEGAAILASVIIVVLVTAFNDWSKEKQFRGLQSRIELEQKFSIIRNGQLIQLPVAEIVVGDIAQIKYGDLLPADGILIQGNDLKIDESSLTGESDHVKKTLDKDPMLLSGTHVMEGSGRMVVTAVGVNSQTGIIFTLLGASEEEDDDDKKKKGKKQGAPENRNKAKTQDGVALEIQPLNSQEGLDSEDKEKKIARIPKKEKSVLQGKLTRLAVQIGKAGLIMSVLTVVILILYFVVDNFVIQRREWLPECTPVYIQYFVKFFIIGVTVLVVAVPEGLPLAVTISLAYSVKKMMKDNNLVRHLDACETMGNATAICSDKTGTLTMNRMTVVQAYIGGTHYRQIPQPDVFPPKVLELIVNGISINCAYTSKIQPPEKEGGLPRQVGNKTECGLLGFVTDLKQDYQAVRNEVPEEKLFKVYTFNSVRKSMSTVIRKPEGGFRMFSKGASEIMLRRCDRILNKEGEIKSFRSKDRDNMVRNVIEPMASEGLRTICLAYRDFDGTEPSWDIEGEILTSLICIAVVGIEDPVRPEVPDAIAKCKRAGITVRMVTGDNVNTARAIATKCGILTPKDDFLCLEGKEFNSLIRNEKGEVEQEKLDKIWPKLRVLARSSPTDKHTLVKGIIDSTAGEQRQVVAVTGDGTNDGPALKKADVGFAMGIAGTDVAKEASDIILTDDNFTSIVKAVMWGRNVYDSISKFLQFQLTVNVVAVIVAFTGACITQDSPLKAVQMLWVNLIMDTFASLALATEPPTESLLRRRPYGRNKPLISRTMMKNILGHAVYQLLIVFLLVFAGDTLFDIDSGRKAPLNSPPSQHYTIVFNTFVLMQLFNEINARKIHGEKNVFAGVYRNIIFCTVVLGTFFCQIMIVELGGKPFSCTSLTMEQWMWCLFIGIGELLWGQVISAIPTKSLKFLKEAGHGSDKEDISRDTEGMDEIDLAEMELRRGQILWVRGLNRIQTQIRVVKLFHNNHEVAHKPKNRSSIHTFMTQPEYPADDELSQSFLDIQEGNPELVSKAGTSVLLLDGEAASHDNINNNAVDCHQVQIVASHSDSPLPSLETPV
Procedure: as §2, §3

p38 MAPK = conditions: HK-2 cell, treatment alone; Wang et al., 2014; cited from earlier work
ERK = conditions: HK-2 cell, treatment alone; Wang et al., 2014; cited from earlier work
mice = conditions: literature (Lee et al., 2013; Wang et al., 2014); cited from earlier work
renalase KO mice = conditions: Wang et al., 2014; cited from earlier work
[5] = cited from earlier work

Chain of PMCA (Homo sapiens, UniProt P23634) (P23634 1-1205 isoform P23634-6): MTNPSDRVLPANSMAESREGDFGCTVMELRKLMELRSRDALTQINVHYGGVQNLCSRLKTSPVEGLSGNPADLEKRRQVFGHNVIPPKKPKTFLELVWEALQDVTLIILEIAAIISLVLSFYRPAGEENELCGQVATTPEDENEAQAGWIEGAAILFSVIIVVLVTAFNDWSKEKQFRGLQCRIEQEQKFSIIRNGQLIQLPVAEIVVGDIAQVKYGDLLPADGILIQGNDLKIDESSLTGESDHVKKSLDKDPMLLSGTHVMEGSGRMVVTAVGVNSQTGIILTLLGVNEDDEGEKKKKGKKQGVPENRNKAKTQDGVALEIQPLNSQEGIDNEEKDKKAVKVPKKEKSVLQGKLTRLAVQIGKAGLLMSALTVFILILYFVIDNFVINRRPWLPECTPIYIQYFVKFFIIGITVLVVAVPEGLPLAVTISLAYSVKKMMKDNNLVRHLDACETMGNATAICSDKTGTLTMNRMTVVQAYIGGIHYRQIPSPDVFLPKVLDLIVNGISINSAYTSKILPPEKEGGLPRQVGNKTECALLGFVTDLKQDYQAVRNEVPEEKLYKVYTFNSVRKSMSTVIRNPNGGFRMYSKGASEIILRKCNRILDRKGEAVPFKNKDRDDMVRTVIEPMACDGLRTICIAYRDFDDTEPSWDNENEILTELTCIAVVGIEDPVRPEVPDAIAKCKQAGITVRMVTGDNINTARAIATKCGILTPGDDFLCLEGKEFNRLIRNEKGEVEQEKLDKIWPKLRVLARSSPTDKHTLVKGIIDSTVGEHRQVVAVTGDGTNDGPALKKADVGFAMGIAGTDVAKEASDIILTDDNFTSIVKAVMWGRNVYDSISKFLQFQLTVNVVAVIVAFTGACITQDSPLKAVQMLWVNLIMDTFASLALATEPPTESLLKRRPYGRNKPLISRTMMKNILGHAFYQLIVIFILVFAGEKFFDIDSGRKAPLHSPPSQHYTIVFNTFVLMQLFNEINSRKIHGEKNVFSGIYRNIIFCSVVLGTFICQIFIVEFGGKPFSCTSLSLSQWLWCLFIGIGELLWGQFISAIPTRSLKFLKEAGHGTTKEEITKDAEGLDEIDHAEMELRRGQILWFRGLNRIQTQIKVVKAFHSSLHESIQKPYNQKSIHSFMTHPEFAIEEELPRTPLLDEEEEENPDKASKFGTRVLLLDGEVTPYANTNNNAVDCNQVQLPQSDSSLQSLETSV

trypsinogen activation in acini from renalase knockout (KO) mice (isolated mouse acini [1]; renalase 25 μg/mL, cerulein 0.1 nM or 100 nM, 30 minutes): reduced | baseline Ca2+ levels (PMCA [3]): did not change | rate of Ca2+ efflux (PMCA [3]; 10 nM angiotensin IV, Ca2+-free and Na+-free medium, cyclopiazonic acid): increased | baseline Ca2+ levels (PMCA [4]): did not change | rate of Ca2+ efflux (PMCA [4]; 100 nM cerulein, Ca2+-free medium, cyclopiazonic acid): increased
B1: recombinant renalase: recombinant full-length human renalase, secretory flavoprotein oxidase; synthesized as in Desir et al., 2012; SEQ ID NO: 8 or 9 (protein)
chain: ALLRRQTSGPLYLAVWDKAEDSGGRMTTACSPHNPQCTADLGAQYITCTPHYAKKHQRFYDELLAYGVLRPLSSPIEGMVMKEGDCNFVAPQGISSIIKHYLKESGAEVYFRHRVTQINLRDDKWEVSKQTGSPEQFDLIVLTMPVPEILQLQGDITTLISECQRQQLEAVSYSSRYALGLFYEAGTKIDVPWAGQYITSNPCIRFVSIDNKKRNIESSEIGPSLVIHTTVPFGVTYLEHSIEDVQELVFQQLENILPGLPQPIATKCQKWRHSQVTNAAANCPGQMTLHHKPFLACGGDGFTQSNFDGCITSALCVLEALKNYI
survival of HK-2 cells exposed to cisplatin (protective effect) (HK-2 cells): protected HK-2 cells to a similar degree | trypsinogen activation induced by cerulein (isolated mouse acini [1]; WT mouse acini, renalase 25 μg/mL 30 minutes pretreatment, supraphysiologic (100 nM) cerulein): reduced | trypsinogen activation induced by carbachol (isolated mouse acini [1]; WT mouse acini, renalase 25 μg/mL 30 minutes pretreatment, supraphysiologic (1000 μM) carbachol): reduced | effect on untreated acini (isolated mouse acini [1]; no stimulation): no effect | effect on acini treated with physiologic stimulation (isolated mouse acini [1]; physiologic cerulein (0.1 nM) or carbachol (1 μM)): no effect | injury of acini in vitro (MTT accumulation, LDH release) (isolated mouse acini [2]): reduce | individual and aggregate histologic scores of pancreatitis (WT mice): significantly decreased injury; also recorded: significantly less | p38 phosphorylation (p38 MAPK): rapidly increased | ERK phosphorylation (ERK): rapidly increased | ischemic acute kidney injury (AKI) (mice): significantly attenuates; also recorded: protects mice against ischemic AKI | activating MAPK signaling in renalase KO mice (renalase KO mice): neither renalase nor RP-220 is effective | protecting renalase KO mice against mild or severe ischemic AKI (renalase KO mice): neither renalase nor RP-220 is effective | blood pressure ([5]; rodents, Xu et al., 2005, Milani et al., 2011): decreases blood pressure | plasma catecholamines ([5]; wild type (WT) mice): lowers | systemic blood pressure ([5]; wild type (WT) mice): lowers

Source: patent US11124779B2, “Compositions and methods for treating and preventing pancreatitis, renal injury and cancer” (Yale University, priority 2014, dated 2021)
